Reference: ChEMBL document CHEMBL1128006, “Solid phase synthesis of trypanothione disulfide” (Bioorg Med Chem Lett, 1994)

Compound: NC(CCC(=O)NC1CSSCC(NC(=O)CCC(N)C(=O)O)C(=O)NCC(=O)NCCCNCCCCNC(=O)CNC1=O)C(=O)O
Experiment: Inhibitory activity against recombinant Trypanothione reductase from Trypanosoma cruzi

B1: Trypanothione reductase (Trypanosoma cruzi), P28593 (protein)
chain: MMSKIFDLVVIGAGSGGLEAAWNAATLYKKRVAVIDVQMVHGPPFFSALGGTCVNVGCVPKKLMVTGAQYMEHLRESAGFGWEFDRTTLRAEWKKLIAVKDEAVLNINKSYEEMFRDTEGLEFFLGWGSLESKNVVNVRESADPASAVKERLETENILLASGSWPHMPNIPGIEHCISSNEAFYLPEPPRRVLTVGGGFISVEFAGIFNAYKPKDGQVTLCYRGEMILRGFDHTLREELTKQLTANGIQILTKENPAKVELNADGSKSVTFESGKKMDFDLVMMAIGRSPRTKDLQLQNAGVMIKNGGVQVDEYSRTNVSNIYAIGDVTNRVMLTPVAINEAAALVDTVFGTNPRKTDHTRVASAVFSIPPIGTCGLIEEVASKRYEVVAVYLSSFTPLMHNISGSKYKTFVAKIITNHSDGTVLGVHLLGDNAPEIIQGVGICLKLNAKISDFYNTIGVHPTSAEELCSMRTPSYYYVKGEKMEKPSEASL
- Km: 50 µM
